Entries after “also recorded” stand apart in the source; their conditions may differ. One block for each substance: values may come before it.
Assays:
Arp2/3 = test: Activities of WASP/N-WASP proteins (Table 4); assay type: biochemical
From the text: The term “variant” or “analogue” generally refers to proteins that are functional equivalents to a native sequence that have similar amino acid sequences and retain, to some extent, one of the activities of the corresponding native protein. Variants/analogues include fragments that retain one or more activities of the corresponding native protein. Examples of WASP and N-WASP activity include, but are not limited to, capacity to: 1) bind Arp2/3 and actin; 2) activate the actin nucleation activity of Arp2/3 (descriptions of assays to detect nucleation activity are provided below); 3) bind an upstream regulator; 4) be regulated by one or more upstream regulators, thereby rendering the WASP or N-WASP protein able to activate the nucleation activity of Arp2/3; and 5) bind downstream regulators initiating signal transduction cascades. Some of the WASP and N-WASP proteins that are provided are able to recapitulate the full activity of WASP or N-WASP, which means that these proteins have all five of the activities just listed. […]
A third class of NPF proteins that can be utilized in some assays include WASP, N-WASP and SCAR proteins that include the WH1 domain but in which the PolyPro region is (e.g., deleted). A fourth class of NPF proteins that can be utilized in some assays are WASP, N-WASP and SCAR deletion mutants in which the PolyPro region is maintained but an N-terminal region (e.g., WH1 domain) is at least partially removed. Some proteins in this class are ones that include the B, CRIB/GBD (WASP and N-WASP), PolyPro and VCA domains, but in which some or all of the WH1 has been removed. One specific example is 98N-WASP, which includes amino acids 98-501 of SEQ ID NO:4. Another specific example is the 105WASP protein, which includes amino acids 105-501 of SEQ ID NO:2 (see FIG. 4B).
As indicated in this table, specific examples of fusion proteins that can be utilized include those that include a segment that encodes full-length WASP or N-WASP, including: Myc-WASP-TAP (SEQ ID NO:14); and Myc-N-WASP-TAP (SEQ ID NO: 16). Examples of fusion proteins that include a WASP or N-WASP deletion mutant domain include: GST-105WASP (SEQ ID NO:18); Myc-105WASP-TAP (SEQ ID NO:20); GST-tev-98N-WASP (SEQ ID NO:22); and Myc-98N-WASP-TAP (SEQ ID NO:24). The TAP tag in these particular fusion proteins has the general structure CBP-tev-ProtA (SEQ ID NO:36). Fusion proteins such as those listed in Table 4 can in some instances be utilized directly, or after one or both of the C- and N-terminal tags are removed. For example, the fusion proteins listed in Table 4 as having a TAP tag can be used once the TAP tag has been cleaved off and/or after the C-terminal tag has been removed.

full length human WASP = molecular target: T1, full length human WASP (Homo sapiens, UniProt P42768); test: Pyrene-actin polymerization assay: activation of full length WASP by upstream regulators; assay type: biochemical; conditions: for activation of FL-WASP (in words): Arp2/3 4.0 nM, actin 3.5 μM; for acceleration of actin polymerization by the activator: FL-WASP; for Barbed ends % of max.** (WASP): after subtracting baseline (WASP without activators); for Barbed ends, nM* (WASP): total concentration of Arp2/3 complex in the assay is 4.2 nM; for EC50: activation of WASP
T1 construct: Full length human WASP and N-WASP were TAP-tagged; Myc (N); made in house; host or cells: human 293 cells (Freestyle 293-F), transient transfection
T1 sequence (P42768 1-502): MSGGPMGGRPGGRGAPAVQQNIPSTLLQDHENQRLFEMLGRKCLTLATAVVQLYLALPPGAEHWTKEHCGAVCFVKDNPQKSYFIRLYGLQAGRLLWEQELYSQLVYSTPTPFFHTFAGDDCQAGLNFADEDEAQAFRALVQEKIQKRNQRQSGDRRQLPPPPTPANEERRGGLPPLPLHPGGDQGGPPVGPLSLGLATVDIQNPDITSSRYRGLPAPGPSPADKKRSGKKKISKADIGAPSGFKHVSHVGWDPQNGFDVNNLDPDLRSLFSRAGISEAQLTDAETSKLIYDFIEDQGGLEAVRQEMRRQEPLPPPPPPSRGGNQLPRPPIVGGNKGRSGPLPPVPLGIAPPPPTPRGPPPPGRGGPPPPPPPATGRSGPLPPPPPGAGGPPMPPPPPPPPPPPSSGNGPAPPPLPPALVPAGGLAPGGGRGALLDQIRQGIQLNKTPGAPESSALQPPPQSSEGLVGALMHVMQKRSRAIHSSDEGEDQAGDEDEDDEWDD
Method: (§1) Samples containing candidate agents (individually or as mixtures) are placed into wells on a multi-well plate. Mix 1 is added to each of the wells and mixed with the candidate agent. A sample of Mix 2 is then introduced into each well and the resulting mixture thoroughly mixed. Typically, Mix 1 and Mix 2 are mixed in 1:1 ratio (e.g., 50 μl each of Mix 1 and Mix 2).
(§2) Actin polymerization is measured as a function of time by exciting pyrene at 365 nm and by detecting an increase in fluorescence emission at 407 nm, or by exciting acrylodan at 405 nm and by detecting an increase in fluorescence emission at 460 nm. The change in fluorescence over time is utilized to determine a fluorescence parameter (e.g., maximal velocity, time to half maximal fluorescence intensity, or area under the curve of a plot of fluorescence versus time; see e.g., FIGS. 5A-5F).
(§3) Full length human WASP and N-WASP were TAP-tagged (Rigaut, et al. (1999) Nat. Biotechnology 17:1030, which is incorporated herein by reference in its entirety for all purposes) at the C-terminus (see, also Examples 2 and 3). The recombinant WASP and N-WASP were expressed in human 293 cells and then purified using a TAP-tag protocol as described in Example 6.
Arp2/3 was purified as described in Example 1. […]
The effect of PIP2 on the ability of upstream regulators to regulate FL-WASP was evaluated in a fifth set of experiments. The results are depicted in graphical format in FIG. 11.

full length human N-WASP = molecular target: T2, full length human N-WASP (Homo sapiens, UniProt O00401); test: Pyrene-actin polymerization assay: activation of full length N-WASP by upstream regulators; assay type: biochemical; conditions: for activation of FL-N-WASP (in words): Arp2/3 4.0 nM, actin 3.5 μM; for Barbed ends % of max.** (N-WASP): after subtracting baseline (WASP without activators); for Barbed ends, nM* (N-WASP): total concentration of Arp2/3 complex in the assay is 4.2 nM; for EC50: activation of N-WASP
T2 construct: Full length human WASP and N-WASP were TAP-tagged; Myc (N); made in house; host or cells: human 293 cells (Freestyle 293-F), transient transfection; insert amplified from HeLa total RNA
T2 sequence (O00401 whole entry Y76H/A201G/F223S/S242L/D248E/S252L/N296S/A333E): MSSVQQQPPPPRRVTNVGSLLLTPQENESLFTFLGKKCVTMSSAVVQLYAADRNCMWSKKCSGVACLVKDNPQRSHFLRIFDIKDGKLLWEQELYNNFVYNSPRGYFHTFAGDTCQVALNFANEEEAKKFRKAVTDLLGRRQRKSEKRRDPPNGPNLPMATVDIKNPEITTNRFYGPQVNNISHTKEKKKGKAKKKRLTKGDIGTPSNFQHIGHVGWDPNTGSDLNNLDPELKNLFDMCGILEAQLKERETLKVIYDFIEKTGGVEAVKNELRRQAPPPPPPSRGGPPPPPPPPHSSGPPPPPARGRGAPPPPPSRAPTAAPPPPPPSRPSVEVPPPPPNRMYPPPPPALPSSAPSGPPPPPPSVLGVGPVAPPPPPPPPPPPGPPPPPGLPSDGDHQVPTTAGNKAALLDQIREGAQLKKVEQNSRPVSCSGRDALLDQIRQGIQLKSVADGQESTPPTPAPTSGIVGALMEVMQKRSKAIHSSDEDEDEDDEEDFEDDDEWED
Method: as §1, §2, §3
(§4) Arp2/3 was purified as described in Example 1.
Arp2/3 and actin concentrations were as described for the third experiment.
Another set of experiments similar to the fifth set were conducted using FL-N-WASP.

Arp2/3 complex = molecular target: T3, Arp2/3 complex; test: Actin polymerization assay comparing FL-WASP/N-WASP and truncated forms of WASP; assay type: biochemical, human
T3 construct: from tissue
Method: 1. A cellular extract containing Arp2/3 complex was prepared from an Arp2/3 source such as human platelets (see, e.g., U.S. Provisional Application No. 60/578,969, filed Jun. 10, 2004; Welch and Mitchison (Meth. Enzymology 298:52-61,1988); and Higgs, H. N. et al. (Biochemistry 38:15212-15222, 1999), all of which are incorporated herein by reference in their entirety for all purposes).
as §1, §2, §4
In a second set of experiments, the ability of various truncated forms of WASP were compared to the activity of the full-length protein. […] FL-WASP, 105 WASP and the VCA (see Example 2) domain were tested. The results of these trials were plotted to obtain EC50 values. The results are provided in FIG. 8 and in the chart below.

[1] = Solubility of purified full-length WASP / N-WASP; assay type: physicochemical; conditions: purified TAP-tag protein from 293 cells

Substance: N-WASP VCA Domain: VCA domain of N-WASP (SEQ ID NO:8)
- Activate Arp2/3? (Arp2/3): Yes
- Regulated By Which Upstream Regulators? (Arp2/3): None

Substance: FL-WASP: full length human WASP (SEQ ID NO:2), nucleation promoting factor
- potency as Arp2/3 complex activator compared with truncated derivatives (in words) (Arp2/3 complex): more potent Arp2/3 complex activator than certain truncated derivatives
- concentration that stimulated production of maximal concentration of barbed ends (Arp2/3 complex; 500 nM Cdc42, 2.5 nm Arp2/3 complex, 3.5 μM actin): 3 nM
- activity of FL-WASP relative to 105 WASP (Arp2/3 complex; 500 nM Cdc42, 2.5 nm Arp2/3 complex, 3.5 μM actin, FIG. 8): approximately 20 times
- stimulation of actin polymerization by the protein alone (in words) (Arp2/3 complex; without activators, FIG. 7): weakly stimulate actin polymerization
- Activate Arp2/3? (Arp2/3): Yes
- Regulated By Which Upstream Regulators? (Arp2/3): Cdc42, PIP2, Nck and Rac1
- solubility (in words) [1]: completely soluble

Substance: Myc-N-WASP-TAP: fusion protein of full-length N-WASP (SEQ ID NO:16)
- Activate Arp2/3? (Arp2/3): Yes
- Regulated By Which Upstream Regulators? (Arp2/3): Cdc42, PIP2, Nck and Rac1

Substance: Myc-WASP-TAP: fusion protein of full-length WASP (SEQ ID NO:14)
- Activate Arp2/3? (Arp2/3): Yes
- Regulated By Which Upstream Regulators? (Arp2/3): Cdc42, PIP2, Nck and Rac1

Substance: Nck2: upstream regulator, GST-tagged (SEQ ID NO:46)
- relative potency as WASP activator (in words) (full length human WASP; FIG. 9): most powerful activators
- dose dependence of WASP activation / barbed end concentration (in words) (full length human WASP; FIG. 9, inhibition at higher concentrations): bell shaped dependence; also recorded: inhibited
- Barbed ends % of max.** (WASP) (full length human WASP): 50 % of max.
- Barbed ends, nM* (WASP) (full length human WASP): 2.6 nM
- EC50 (full length human WASP): 12 nM
- activation of FL-N-WASP (in words) (full length human N-WASP; FIG. 10): can stimulate production of maximal concentration of barbed ends
- relative potency as N-WASP activator (in words) (full length human N-WASP; FIG. 10, Rac1 vs Cdc42 in the absence of PIP2 vesicles): significantly better activator of N-WASP than WASP; also recorded: most powerful activators
- dose dependence of N-WASP activation (in words) (full length human N-WASP; FIG. 10, inhibition at higher concentrations): bell shaped dose dependence curve; also recorded: inhibited
- Barbed ends % of max.** (N-WASP) (full length human N-WASP; N-WASP): 78 % of max.
- Barbed ends, nM* (N-WASP) (full length human N-WASP; N-WASP): 3.5 nM
- EC50 (full length human N-WASP): 7 nM

Second part, led by results:

- effect of PIP2 on WASP stimulated actin polymerization (full length human WASP; in the presence of small GTPases or Nck, FIG. 11): strong inhibitory effect
Substance: phosphatidylinositol-4,5-bisphosphate [PIP2, reference compound]
- effect of PIP2 on FL-WASP (full length human WASP; in the absence of small GTPases or Nck, FIG. 11): no effect; also recorded: minimal, if any, effect
- effect of PIP2 on Nck stimulated activation of N-WASP (full length human N-WASP; Nck present, FIG. 12): inhibited; also recorded: inhibitory effect
- effect of PIP2 on N-WASP activation by Rac1 or Cdc42 (full length human N-WASP; small GTPases present, FIG. 12): marked synergistic effect; also recorded: synergistically; also recorded: marked synergestic effect

- activation of FL-WASP (in words) (full length human WASP; FIG. 9): could not activate
- activation of FL-N-WASP (in words) (full length human N-WASP; FIG. 10): could not activate
Substance: RhoA: GTPase, GST-tev-RhoA (SEQ ID NO:30)

- activation of FL-WASP (in words) (full length human WASP; FIG. 9): could not activate
- activation of FL-N-WASP (in words) (full length human N-WASP; FIG. 10): could not activate
Substance: RhoC: GTPase, GST-tev-RhoC (SEQ ID NO:28)

- acceleration of actin polymerization by the activator (full length human WASP; FIG. 7): 13 fold
- acceleration of actin polymerization by the activator (full length human WASP; FIG. 7 legend): 13 times
- Barbed ends % of max.** (WASP) (full length human WASP): 87 % of max.
- Barbed ends, nM* (WASP) (full length human WASP): 3.8 nM
- EC50 (full length human WASP): 16 nM
- acceleration of actin polymerization by the activator (full length human N-WASP; FL-N-WASP, FIG. 7 legend): 13 times
- acceleration of actin polymerization by the activator (full length human N-WASP; N-WASP, FIG. 7): 13 fold
- Barbed ends % of max.** (N-WASP) (full length human N-WASP; N-WASP): 9 % of max.
- Barbed ends, nM* (N-WASP) (full length human N-WASP; N-WASP): 1.3 nM
- EC50 (full length human N-WASP): 287 nM
Substance: Cdc42: Rho-family GTPase upstream regulator, GST-tagged (SEQ ID NO:26)
- activation of FL-WASP (in words) (full length human WASP; FIG. 9): fully activates FL-WASP; also recorded: can fully activate FL-WASP
- relative potency as WASP activator (in words) (full length human WASP; FIG. 9): more effective on WASP-stimulated actin nucleation by Arp2/3 complex than on N-WASP-stimulated actin nucleation

Source: patent publication US20060003399A1, “High throughput actin polymerization assay” (Cytokinetics, Inc., priority 2004, published 2006)
